The Human Domainome abundance scans (Beltran et al. 2025)

B1: Nucleosome-remodeling factor subunit BPTF, residues 2862 to 2918; numbered along this chain, Q12830 (parent)
chain: TKKDTKLYCICKTPYDESKFYIGCDRCQNWYHGRCVGILQSEAELIDEYVCPQCQST

Variants of: B1
Assay: abundance fitness (aPCA) (normalised: wild type 0, dead -1); higher = more abundant; growth selection in yeast, the domain comes from the species named
Settings: Homo sapiens

Abundance fitness, by site and new letter:
Q40: E -0.036 | P -0.2
A43: Q 0 | K -0.025 | V -0.036 | F -0.17 | I 0.016 | N -0.251 | E -0.226 | L -0.144 | Y -0.074 | H 0.013 | P -0.167 | G -0.028 | S -0.119 | T -0.148 | D -0.392 | R -0.076 | M -0.13 | W -0.182
R34: H 0.035 | S 0.051 | M -0.251 | I -0.164 | T -0.065 | Y -0.107 | P -0.144 | K 0.109 | W -0.363 | N 0.075 | Q 0.01
C54: E -0.776 | G -0.755 | H -0.512 | D -0.819 | I -1.06 | A -0.851 | F -1.06
D47: N -0.03 | I -0.227 | P -0.107 | E 0.101 | S -0.053 | A 0.003 | F -0.219 | G 0.054 | V -0.138 | H 0.134 | T -0.051 | Q 0.077 | M -0.14 | K 0.089 | W -0.326 | R -0.044 | L -0.058 | C -0.043
G37: Q -0.216 | A -0.277 | K -0.009 | R -0.207 | E -0.23 | F -0.418 | M -0.359 | I -0.882 | L -0.411 | P -0.99 | N -0.158 | C -0.379 | Y -0.418 | S -0.074 | H -0.157 | W -0.681
L45: W -0.185 | T -0.03 | G -0.053 | A -0.111 | K -0.018 | S -0.075 | M -0.219 | R 0.04 | P -0.309 | D -0.04 | N -0.017 | I -0.128 | H 0.101 | V -0.001 | Y -0.179
E42: T -0.37 | Y -0.304 | C -0.129 | N -0.279 | G -0.294 | A -0.099 | M -0.288 | K -0.083 | P -0.342 | S -0.205 | W -0.539 | D -0.003 | R -0.403 | Q -0.021 | V -0.269 | F -0.274 | L -0.468
E44: M -0.089 | T -0.165 | Q -0.086 | D 0.027 | V -0.123 | S -0.048 | W -0.408 | A -0.001 | N -0.116 | F -0.089 | R -0.045 | P -0.097 | C -0.137 | K -0.018 | I -0.193 | L -0.11
L39: F -0.006 | A -0.306 | E 0.225 | T -0.08 | R -0.033 | D -0.062 | P 0.102 | G -0.116 | V -0.286 | W -0.326 | S -0.024
C35: V -1.06 | R -1.01 | T -0.933 | Q -0.804 | G -0.958 | M -0.827 | W -0.981 | L -0.81 | N -1.07 | K -0.915 | F -0.92 | S -0.75 | H -0.764 | D -0.931 | A -0.827 | E -0.834 | P -0.74 | Y -0.878
I46: Q -0.058 | R -0.045 | E -0.228 | Y -0.282 | H -0.11 | W -0.154 | T 0 | D -0.365 | F -0.163 | G -0.254 | M -0.037 | V -0.073 | L -0.027 | S -0.095 | A -0.176 | P -0.03 | N -0.098 | C -0.483
